The target in the series is ATF4 (human (ORF from 293 cells), UniProt P18848 1-351). Kind of series: EMSA; 1.2 uM ATF4, 3 nM probe; excess unlabeled probe competes completely; supershift with anti-ATF4 at 0.7 uM ATF4; 20 ul EMSA, 3 nM DIG-labeled probe, Roche kit instructions; buffer, salt, pH and temperature not stated. The settings on record: protein: recombinant; tags: His-tag; chain copies: 2; label: DIG; blunt. For orientation: A gel shift assay detects complexes by their altered migration in electrophoresis.
ATF4, sequence (P18848 whole entry): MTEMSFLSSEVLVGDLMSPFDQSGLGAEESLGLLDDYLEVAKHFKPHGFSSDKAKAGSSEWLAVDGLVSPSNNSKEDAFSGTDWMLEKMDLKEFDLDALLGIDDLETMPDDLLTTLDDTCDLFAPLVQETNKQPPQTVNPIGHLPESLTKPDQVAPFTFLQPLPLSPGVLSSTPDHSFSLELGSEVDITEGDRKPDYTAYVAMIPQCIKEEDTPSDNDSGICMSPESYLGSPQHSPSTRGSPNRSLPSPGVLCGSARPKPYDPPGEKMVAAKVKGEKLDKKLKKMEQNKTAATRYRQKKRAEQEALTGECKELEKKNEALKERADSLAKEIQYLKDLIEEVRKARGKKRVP

B1: APOE promoter -491A probe (-521 to -461) (dsDNA)
DNA 1: GTTTCACCATGTTGGCCAGGCTGGTCTCAAACTCCTGACCTTAAGTGATTCGCCCACTGTG
DNA 2: CACAGTGGGCGAATCACTTAAGGTCAGGAGTTTGAGACCAGCCTGGCCAACATGGTGAAAC
As to B1, the binding result was “binds”.

These data come from publication PMC3196492, “APOE Genotype-Function Relationship: Evidence of −491 A/T Promoter Polymorphism Modifying Transcription Control but Not Type 2 Diabetes Risk”.
